B1: HSP90AB1 (parent)
chain: YHTSQSGDEMTSLSEYVSRMKETQ

This note sets out measurements from the supplement of paper PMC10567573.
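Further: lentivirally expressed fusions sorted by FACS into six bins by GFP to DsRed ratio, PSI derived from sequencing read proportions per bin multiplied by bin number.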

The variants in the data set derive from B1. As to the kind of experiment: protein stability index of a GFP-peptide fusion (GPS, HEK-293T) (PSI 1-6); higher = more stable. The note with it: c terminus: a fixed tail appended.
Regarding YHTSQSGDEMTSLSEYVSYMKETQ, the protein stability index turned out to be 3.7.
The figure for YHTSQSGDEMTSLSEYVSHMKETQ is 3.68; for YHTSQSGDEMTSLSEYVSDMKETQ it is 4.41.
For the variant YHTSQSGDEMTSLSEYVSIMKETQ, the protein stability index was 3.66.
The figure for YHTSQSGDEMTSLSEYVSFMKETQ is 3.15; for YHTSQSGDEMTSLSEYVSTMKETQ it is 4.18.
The value for YHTSQSGDEMTSLSEYVSGMKETQ was 4.09; that for YHTSQSGDEMTSLSEYVSVMKETQ was 3.67; that for YHTSQSGDEMLSLSEYVSRMKETQ was 3.35.
The figure for YHTSQSGDEMRSLSEYVSRMKETQ is 3.53; for YHTSQSGDEMDSLSEYVSRMKETQ it is 3.81.
Take YHTSQSGDEMESLSEYVSRMKETQ: the protein stability index was found to be 3.9.
The value for YHTSQSGDEMHSLSEYVSRMKETQ was 3.64; that for YHTSQSGDEMTSLSEYVLRMKETQ was 2.74; that for YHTSQSGDEMTSLSEYVGRMKETQ was 3.36.
Regarding YHTSQSGDEMTSLSEYVQRMKETQ, the protein stability index turned out to be 3.66.
The value for YHTSQSGDEMTSLVEYVSRMKETQ was 3.37.
The figure for YHTSQSGDEMTSLGEYVSRMKETQ is 3.78; for YHTSQSGDEMTSLREYVSRMKETQ it is 3.57.
The value for YHTSQSGDEMTSLDEYVSRMKETQ was 2.96.
Take YHTSQSGDEDTSLSEYVSRMKETQ: the protein stability index was 4.68.
The value for YHTSQSGDETTSLSEYVSRMKETQ was 3.73.
The figure for YHTSQSGDEMTSLSEYVSRMKELQ is 3.57; for YHTSQSGDEMTSLSEYVSRMKEIQ it is 3.63; for YHTSQSGDEMTSLSEYVSRMKEAQ it is 3.81.
The value for YHTSQSGDEMTSLSRYVSRMKETQ was 2.85; that for YHTSQSGDEMTSLSHYVSRMKETQ was 2.96.
Consider YHTSQSGDEMTSLSAYVSRMKETQ, for which the protein stability index worked out at 2.6.
The figure for YHTSQSGDEMTSLSFYVSRMKETQ is 1.99; for YHTSQSGDEMTSLSEYYSRMKETQ it is 3.33.
The figure for YHTSQSGDEMTSLSEYISRMKETQ is 3.22.
YHTSQSGDEMTSTSEYVSRMKETQ: the protein stability index turned out to be 4.25.
The value for YHTSQSGDEMTSYSEYVSRMKETQ was 3.38.
The value for YHTSQSGDEMTSNSEYVSRMKETQ was 4.34; that for YHTSQSGDEMTSSSEYVSRMKETQ was 3.68; that for YHTSQSGDEMTSHSEYVSRMKETQ was 3.88.
For the variant YHTSQSGDEMTSCSEYVSRMKETQ, the protein stability index turned out to be 3.52.
The figure for YHTSNSGDEMTSLSEYVSRMKETQ is 3.39; for YHTSSSGDEMTSLSEYVSRMKETQ it is 3.55.
The value for YHTSPSGDEMTSLSEYVSRMKETQ was 3.34.
In the case of YHTSWSGDEMTSLSEYVSRMKETQ, the protein stability index is 1.98.
Consider YHTSQSGDEMTSLSEYVSRQKETQ, for which the protein stability index worked out at 4.13.
The figure for YHTSQSGDEMTSLSEYVSRHKETQ is 4.16; for YHTSQSGDEMTSLSEYVSRSKETQ it is 3.73; for YHTSQSGDEMTSLSEYVSRYKETQ it is 3.55.
For the variant YHTSQSGDEMTSLSEYVSRPKETQ, the protein stability index is 4.44.
Take YHTSQSGQEMTSLSEYVSRMKETQ: the protein stability index was determined as 3.69.
With YHTSQSGLEMTSLSEYVSRMKETQ, the protein stability index stood at 3.31.
The figure for YHTSQSGGEMTSLSEYVSRMKETQ is 2.89; for YHTSQSGWEMTSLSEYVSRMKETQ it is 2.17; for YHTSQSGTEMTSLSEYVSRMKETQ it is 3.24.
The figure for YFTSQSGDEMTSLSEYVSRMKETQ is 4.26; for YQTSQSGDEMTSLSEYVSRMKETQ it is 3.94; for YETSQSGDEMTSLSEYVSRMKETQ it is 4.56.
The value for YHTQQSGDEMTSLSEYVSRMKETQ was 3.34; that for YHTSQSGDEMTSLSEYVSRMKITQ was 3.89; that for YHTSQSGDEMTSLSEYVSRMKMTQ was 3.31.
Take YHTSQSGDEMTSLSEYVSRMKSTQ: the protein stability index stood at 3.
The figure for YHTSQSGDEMTSLSEYVSRMKKTQ is 3.63.
For the variant YHTSQSGDEMTSLSEYVSRMKTTQ, the protein stability index worked out at 3.67.
Regarding YHTSQFGDEMTSLSEYVSRMKETQ, the protein stability index came out at 2.54.
The value for YHTSQGGDEMTSLSEYVSRMKETQ was 3.75.
The figure for YHTSQPGDEMTSLSEYVSRMKETQ is 3.02; for YHTSQSGDEMTSLSELVSRMKETQ it is 3.41; for YHTSQSGDEMTSLSEFVSRMKETQ it is 3.49.
The figure for YHTSQSGDEMTSLSEVVSRMKETQ is 3.79; for YHTSQSGDEMTSLSEEVSRMKETQ it is 4.37.
As for YHTSQSGDEMTSLSEMVSRMKETQ, the protein stability index came out at 4.16.
As for YHTSQSWDEMTSLSEYVSRMKETQ, the protein stability index worked out at 2.99.
The figure for YHTSQSVDEMTSLSEYVSRMKETQ is 3.26; for YHTSQSRDEMTSLSEYVSRMKETQ it is 3.44; for YHTSQSGDQMTSLSEYVSRMKETQ it is 3.43.
As for RHTSQSGDEMTSLSEYVSRMKETQ, the protein stability index is 4.14.
Regarding SHTSQSGDEMTSLSEYVSRMKETQ, the protein stability index worked out at 4.67.
The value for EHTSQSGDEMTSLSEYVSRMKETQ was 4.97; that for VHTSQSGDEMTSLSEYVSRMKETQ was 4.81; that for YHTSQSGDEMTSLSEYVSRMHETQ was 3.52.
For YHTSQSGDEMTSLSEYVSRMGETQ, the protein stability index came to 3.84.
The value for YHTSQSGDEMTSLSEYVSRMSETQ was 3.35; that for YHTSQSGDEMTSLSEYVSRMRETQ was 3.29; that for YHTSQSGDEMTSLSEYVSRMTETQ was 3.42.
Consider YHTSQSGDEMTDLSEYVSRMKETQ, for which the protein stability index turned out to be 4.14.
The figure for YHTSQSGDEMTELSEYVSRMKETQ is 4.28; for YHTSQSGDEMTQLSEYVSRMKETQ it is 3.36.
The figure for YHTSQSGDEMTLLSEYVSRMKETQ is 2.49; for YHCSQSGDEMTSLSEYVSRMKETQ it is 3.22; for YHISQSGDEMTSLSEYVSRMKETQ it is 3.18.
The figure for YHVSQSGDEMTSLSEYVSRMKETQ is 2.96; for YHQSQSGDEMTSLSEYVSRMKETQ it is 3.66; for YHTSQSGDEMTSLSEYVSRMKETI it is 3.05.
For the variant YHTSQSGDEMTSLSEYVSRMKETT, the protein stability index is 3.64.
The figure for YHTSQSGDEMTSLSEYVSRMKETP is 3.43; for YHTSQSGDEMTSLSEYVSRMKETF it is 3.16.
YHTSQSGDEMTSLSEYVSRMKETM: the protein stability index amounted to 3.2.
